Source: paper PMC8847575, “HSL1 and BAM1/2 impact epidermal cell development by sensing distinct signaling peptides” (Nature Communications, 2022)
Several values for one entry are separate records, joined by “and”; a condition that tells them apart may be missing. Equal entries are not always repeated. Where two headings read alike, the source gives them in different places. Square brackets hold non-standard residues; d marks the D form. Ends that are not written are not given here. Peptide text beside a SMILES is read from it. Hyp = O=C(O)[C@@H]1C[C@@H](O)CN1

Tests used:
[1] = biological target: T1, BAM1 LRR ectodomain (Arabidopsis thaliana, UniProt O49545); experiment: ITC, peptide titrated into BAM1 ectodomain; format: binding; conditions: ITC, 25 °C, mean ± SD of at least two independent experiments; for Kd (dissociation constant), peptide vs BAM1: peptide into BAM1 ectodomain (cell), 20 mM sodium citrate pH 5.0, 150 mM NaCl, N fitted to 1, n.d = no binding detected; for ΔH, peptide vs BAM1: peptide into BAM1 ectodomain, pH 5.0
T1 construct: BAM1 (residues 20–637, AT5G65700); azurocidin or Drosophila BIP signal peptide (secretion signal) (N); made in house; host or cells: Trichoplusia ni Tnao38 insect cells (baculovirus)
T1 sequence (O49545 20-637): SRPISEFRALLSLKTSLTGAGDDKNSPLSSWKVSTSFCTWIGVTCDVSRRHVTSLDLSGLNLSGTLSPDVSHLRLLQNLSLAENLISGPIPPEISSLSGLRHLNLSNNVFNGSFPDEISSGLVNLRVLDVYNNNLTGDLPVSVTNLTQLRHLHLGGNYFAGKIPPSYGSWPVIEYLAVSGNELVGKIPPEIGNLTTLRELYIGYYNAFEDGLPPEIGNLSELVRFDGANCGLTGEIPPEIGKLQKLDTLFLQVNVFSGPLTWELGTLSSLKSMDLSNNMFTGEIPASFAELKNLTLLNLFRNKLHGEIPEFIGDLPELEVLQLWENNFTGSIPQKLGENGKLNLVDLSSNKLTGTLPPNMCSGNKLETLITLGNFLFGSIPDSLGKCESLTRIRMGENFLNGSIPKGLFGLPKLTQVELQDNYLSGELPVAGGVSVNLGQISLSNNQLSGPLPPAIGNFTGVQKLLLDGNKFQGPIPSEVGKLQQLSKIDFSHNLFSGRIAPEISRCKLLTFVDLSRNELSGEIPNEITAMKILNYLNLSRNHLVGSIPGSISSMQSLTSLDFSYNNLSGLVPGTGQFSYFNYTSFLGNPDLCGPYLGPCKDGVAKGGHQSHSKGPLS
Description: All genes used for protein expression in Trichoplusia ni Tnao38 cells[46] were codon optimized and cloned into a modified pFastBac vector (Geneva Biotech) providing an azurocidin[47] or Drosophila BIP signal peptide, a TEV (tobacco etch virus protease) cleavage site and a Strep-9xHis tandem affinity tag at their carboxy terminus. The genes used are coding for the Arabidopsis ectodomains of HSL1 (residues 17-618, AT1G28440), HAE (residues 20-620, AT4G28490) SERK1 (residues 24–213, AT1G71830), and BAM1 (residues 20–637, AT5G65700). To perform Grating-coupled interferometry (GCI) experiments, HSL1 was fused to a non-cleavable Avi-tag[49],[50]. Baculovirus generation was carried out in DH10 cells and virus amplification was done in Spodoptera frugiperda Sf9 cells. For protein expression, Trichoplusia ni Tnao38 cells were infected with HAE, HSL1, BAM1 and SERK1 virus with a multiplicity of infection (MOI) of 3. The cells were grown 1 day at 28 °C and two days at 22 °C at 110 rpm. After every expression round, secretion of our proteins was detected using an anti-His-HRP conjugated antibody from Roche (Ref:11965085001) in a 1:2000 dilution. […] Next, affinity tags were removed by incubating the purified proteins with recombinant His-tagged TEV protease, in a 1:50 ratio. The cleaved tag and the protease were separated from the ectodomains by a second Ni^2+ affinity step. Proteins were further purified by size-exclusion chromatography on a Superdex 200 Increase 10/300 GL column (GE Healthcare) equilibrated in 20 mM citric acid pH 5.0, 150 mM NaCl. Peak fractions containing the single proteins or complexes were concentrated using Amicon Ultra concentrators (Millipore, MWCO 10,000 for SERK1 and 30,000 for HAE, HSL1, and BAM1) and used for crystallization or biochemical experiments. Proteins were analyzed for purity and structural integrity by SDS-PAGE.
Experiments were performed at 25 °C using a MicroCal PEAQ-ITC (Malvern Instruments) with a 200 µL standard cell and a 40 μL titration syringe. HSL1, BAM1, and SERK1 proteins were gel-filtrated into the ITC buffer (20 mM sodium citrate pH 5.0, 150 mM NaCl). Molar protein concentrations for HSL1, BAM1, and SERK1 were calculated using their molar extinction coefficient and a molecular weight of 74,896 and 27,551 Da, respectively as previously determined. A typical experiment consisted of injecting 2 μL of a range between 75 and 600 μM solution of ligand into 10 to 30 μM HAE, HSL1, or BAM1 solution in the cell at 150 s intervals and 500 rpm stirring speed. The SERK1 vs HAE/HSL1-peptide experiments were performed by titrating 100 µM SERK1 in the cell, using the same injection pattern. ITC data were corrected for the heat of dilution by subtracting the mixing enthalpies for titrant solution injections into protein-free ITC buffer. Experiments were done in duplicates or triplicates, otherwise specified, and data were analyzed using the MicroCal PEAQ-ITC Analysis Software provided by the manufacturer. […] The N values were fitted to 1 in the analysis.

[2] = biological target: T2, BAM1 (BARELY ANY MERISTEM 1) ectodomain (Arabidopsis, UniProt O49545 20-637); experiment: ITC
T2 chain: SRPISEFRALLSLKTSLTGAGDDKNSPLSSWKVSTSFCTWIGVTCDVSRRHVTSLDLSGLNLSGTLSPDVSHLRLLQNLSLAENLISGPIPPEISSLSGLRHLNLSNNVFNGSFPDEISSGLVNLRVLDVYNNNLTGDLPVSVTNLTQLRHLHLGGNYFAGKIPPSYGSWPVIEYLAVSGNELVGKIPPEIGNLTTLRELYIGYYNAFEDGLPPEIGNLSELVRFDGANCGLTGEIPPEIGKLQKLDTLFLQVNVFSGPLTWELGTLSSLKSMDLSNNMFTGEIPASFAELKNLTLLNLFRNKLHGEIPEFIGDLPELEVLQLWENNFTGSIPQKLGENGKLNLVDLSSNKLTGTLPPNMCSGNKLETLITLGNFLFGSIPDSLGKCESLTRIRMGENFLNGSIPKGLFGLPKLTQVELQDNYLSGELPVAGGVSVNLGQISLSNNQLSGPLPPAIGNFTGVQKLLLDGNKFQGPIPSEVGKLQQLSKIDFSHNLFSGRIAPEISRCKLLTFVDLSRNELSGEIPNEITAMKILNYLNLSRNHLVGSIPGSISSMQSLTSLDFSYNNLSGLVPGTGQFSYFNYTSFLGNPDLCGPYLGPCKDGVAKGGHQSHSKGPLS

[3] = biological target: T3, HSL1 (HAESA-LIKE 1) ectodomain (Arabidopsis, UniProt Q9SGP2 17-618); experiment: ITC
T3 chain: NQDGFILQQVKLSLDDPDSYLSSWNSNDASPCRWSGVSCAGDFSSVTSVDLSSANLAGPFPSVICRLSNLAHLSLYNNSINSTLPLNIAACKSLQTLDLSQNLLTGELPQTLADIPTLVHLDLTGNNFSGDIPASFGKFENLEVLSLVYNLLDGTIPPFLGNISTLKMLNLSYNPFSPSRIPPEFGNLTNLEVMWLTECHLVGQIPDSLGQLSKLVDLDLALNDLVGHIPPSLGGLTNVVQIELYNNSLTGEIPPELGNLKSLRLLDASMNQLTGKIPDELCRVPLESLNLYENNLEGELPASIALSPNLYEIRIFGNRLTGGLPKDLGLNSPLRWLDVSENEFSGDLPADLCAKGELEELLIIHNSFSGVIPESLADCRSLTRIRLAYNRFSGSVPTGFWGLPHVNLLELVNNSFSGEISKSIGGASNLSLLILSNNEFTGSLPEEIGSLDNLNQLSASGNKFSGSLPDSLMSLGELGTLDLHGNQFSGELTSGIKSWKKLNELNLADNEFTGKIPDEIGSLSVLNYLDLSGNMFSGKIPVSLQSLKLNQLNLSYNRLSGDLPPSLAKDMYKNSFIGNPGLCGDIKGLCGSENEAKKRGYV

[4] = biological target: T4, biotinylated HSL1 ectodomain with Avi-tag (Arabidopsis, UniProt Q9SGP2 17-618, biotin on the Avi-tag (BirA))
T4 chain: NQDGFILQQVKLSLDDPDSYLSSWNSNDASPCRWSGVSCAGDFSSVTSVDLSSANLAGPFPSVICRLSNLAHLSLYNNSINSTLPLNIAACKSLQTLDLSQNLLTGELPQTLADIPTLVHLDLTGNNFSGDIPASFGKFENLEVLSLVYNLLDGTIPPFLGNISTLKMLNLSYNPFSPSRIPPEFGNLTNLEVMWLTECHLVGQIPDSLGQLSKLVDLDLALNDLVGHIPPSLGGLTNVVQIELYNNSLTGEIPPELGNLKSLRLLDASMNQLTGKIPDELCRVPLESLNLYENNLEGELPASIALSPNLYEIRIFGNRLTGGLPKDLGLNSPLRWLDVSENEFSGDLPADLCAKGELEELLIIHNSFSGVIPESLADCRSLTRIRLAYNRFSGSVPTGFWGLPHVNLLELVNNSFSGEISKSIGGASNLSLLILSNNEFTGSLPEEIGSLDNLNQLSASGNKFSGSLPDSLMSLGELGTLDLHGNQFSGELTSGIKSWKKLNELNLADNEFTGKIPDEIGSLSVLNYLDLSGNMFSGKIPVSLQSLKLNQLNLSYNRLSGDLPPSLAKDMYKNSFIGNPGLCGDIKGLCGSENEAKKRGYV

[5] = biological target: T4, biotinylated HSL1 ectodomain with …; experiment: GCI
[6] = biological target: T4, biotinylated HSL1 ectodomain with …; experiment: GCI
[7] = biological target: T4, biotinylated HSL1 ectodomain with …

## CC[C@H](C)[C@H](NC(=O)[C@@H]1CCCN1)C(=O)N1CCC[C@H]1C(=O)N1CCC[C@H]1C(=O)N[C@@H](CO)C(=O)NCC(=O)N1C[C@H](O)C[C@H]1C(=O)N[C@@H](CC(N)=O)C(=O)N1CCC[C@H]1C(=O)N[C@@H](CC(C)C)C(=O)N[C@@H](Cc1c[nH]cn1)C(=O)N[C@@H](CC(N)=O)C(=O)O [CLE9^R109PL110IV111P] (H-PIPPSG[Hyp]NPLHN-OH)
[1]
  Kd (dissociation constant), peptide vs BAM1: non-detectable binding

## CC[C@H](C)[C@H](NC(=O)[C@@H]1CCCN1)C(=O)N[C@H](C(=O)N1CCC[C@H]1C(=O)N[C@@H](CO)C(=O)NCC(=O)N1C[C@H](O)C[C@H]1C(=O)N[C@@H](CC(N)=O)C(=O)N1CCC[C@H]1C(=O)N[C@@H](CC(C)C)C(=O)N[C@@H](Cc1c[nH]cn1)C(=O)N[C@@H](CC(N)=O)C(=O)O)C(C)C [CLE9^R109PL110I] (H-PIVPSG[Hyp]NPLHN-OH)
[1]
  ΔH, peptide vs BAM1: -27 ± 11 kcal/mol

## CC(C)C[C@H](NC(=O)[C@@H]1CCCN1)C(=O)N[C@H](C(=O)N1CCC[C@H]1C(=O)N[C@@H](CO)C(=O)NCC(=O)N1C[C@H](O)C[C@H]1C(=O)N[C@@H](CC(N)=O)C(=O)N1CCC[C@H]1C(=O)N[C@@H](CC(C)C)C(=O)N[C@@H](Cc1c[nH]cn1)C(=O)N[C@@H](CC(N)=O)C(=O)O)C(C)C [CLE9^R109P] (H-PLVPSG[Hyp]NPLHN-OH)
[1]
  ΔH, peptide vs BAM1: -26 ± 8 kcal/mol

## CC(C)C[C@H](NC(=O)[C@@H](N)CCCNC(=N)N)C(=O)N[C@H](C(=O)N1CCC[C@H]1C(=O)N[C@@H](CO)C(=O)N[C@@H](C)C(=O)N1C[C@H](O)C[C@H]1C(=O)N[C@@H](CO)C(=O)N[C@@H](CCCCN)C(=O)N[C@@H](CCCNC(=N)N)C(=O)N[C@@H](Cc1c[nH]cn1)C(=O)N[C@@H](CC(N)=O)C(=O)O)C(C)C [IDA^P58RI59LP60V] (H-RLVPSA[Hyp]SKRHN-OH)
[1]
  Kd (dissociation constant), peptide vs BAM1: restore binding to BAM1

## CC(C)C[C@H](NC(=O)[C@@H]1CCCN1C(=O)[C@H](CC(N)=O)NC(=O)[C@@H]1C[C@@H](O)CN1C(=O)CNC(=O)[C@H](CO)NC(=O)[C@@H]1CCCN1C(=O)[C@@H]1CCCN1C(=O)[C@H](CC(C)C)NC(=O)[C@@H]1CCCN1)C(=O)N[C@@H](Cc1c[nH]cn1)C(=O)N[C@@H](CC(N)=O)C(=O)O [CLE9^R109PV111P] (H-PLPPSG[Hyp]NPLHN-OH)
[1]
  ΔH, peptide vs BAM1: -3.7 ± 0.4 kcal/mol

## CC(C)C[C@H](NC(=O)[C@@H]1CCCN1C(=O)[C@H](CC(N)=O)NC(=O)[C@@H]1C[C@@H](O)CN1C(=O)CNC(=O)[C@H](CO)NC(=O)[C@@H]1CCCN1C(=O)[C@@H]1CCCN1C(=O)[C@H](CC(C)C)NC(=O)[C@@H](N)CCCNC(=N)N)C(=O)N[C@@H](Cc1c[nH]cn1)C(=O)N[C@@H](CC(N)=O)C(=O)O [CLE9^V111P] (H-RLPPSG[Hyp]NPLHN-OH)
[1]
  ΔH, peptide vs BAM1: -19 ± 8.3 kcal/mol

## PLVPSGPNPLHN [CLE9 variant with the first residue substituted by the corresponding one of IDA]
[2]
  Kd: 91 nM

## PLPPSGPNPLHN (also: Hyp112 and Hyp115 presumed as in wild-type) [CLE9^R109PV111P]
[2]
  Kd: 2240 nM

## YVPVPASGPSRKHN (also: conserved central hydroxyproline, position not given here) [IDL2 (IDA-LIKE 2) mature peptide]
[3]
  Kd: 121 nM

B1: IDL1 (IDA-LIKE 1) mature peptide (peptide)
chain: YVLVPPSGPSMRHN
modifications: not fully specified; also: conserved central hydroxyproline, position not given here
[3]
  Kd: 590 nM

## PVPASAPSRKHN [IDL4 (IDA-LIKE 4) mature peptide]
[4]
  koff: 0.52 s⁻¹ and 0.75 s⁻¹
[5]
  Kd: 1850 nM
[6]
  koff: 0.65 s⁻¹
[7]
  Kd: 2700 nM and 1000 nM
[3]
  Kd: 2020 nM

B2: IDA (INFLORESCENCE DEFICIENT IN ABSCISSION) mature peptide (peptide)
chain: YVPIPPSAPSKRHN
modifications: also: hydroxyproline at Pro64 (precursor numbering), position in chain not settled
[4]
  koff: 0.15 s⁻¹ and 0.12 s⁻¹
[5]
  Kd: 580 nM
[6]
  koff: 0.127 s⁻¹
[7]
  Kd: 655 nM and 422 nM
[3]
  Kd: 400 nM

B3: IDL3 (IDA-LIKE 3) mature peptide (peptide)
chain: PVPTSGPSRKHN
modifications: not fully specified; also: conserved central hydroxyproline, position not given here
[4]
  koff: 0.59 s⁻¹ and 0.49 s⁻¹
[5]
  Kd: 800 nM
[6]
  koff: 0.55 s⁻¹
[7]
  Kd: 608 nM and 1000 nM
[3]
  Kd: 690 nM

## RLVPSAPSKRHN [IDA^P58RI59LP60V peptide]
[2]
  Kd: 980 nM
